We go through one molecule from US20220402981A1 (Dana-Farber, published 2022).

One assay addresses T1, DCAF15split (human, UniProt Q66K64 30-264; Q66K64 383-600).
T1 construct: range 30-264;range 383-600; DCAF15 as two fragments in the crystal structures (PDB 6Q0R, 6Q0V, 6Q0W); also called Strep II Avi-DCAF15NTD (residues 30-264)-Strep II Avi-DCAF15CTD (residues 383-600); DCAF15-NTD; not shown: N-terminal Strep II Avi tag
Description: crystal structure with E7820.

A further assay deals with T2, full-length human DCAF15 (human, UniProt Q66K64 1-600).
T2 construct: mature; As in the cryo-EM and cross-linking complexes; also called full-length DCAF15
Description: cryo-EM at ~4.4 Å with E7820.

B1: His6-RBM39RRM2 (other)
chain: GSAGPMRLYVGSLHFNITEDMLRGIFEPFGRIESIQLMMDSETGRSKGYGFITFSDSECAKKALEQLNGFELAGRPMKVGHVTERTDA
notes: RBM39RRM2 as in the crystals, cryo-EM and cross-linking complexes; not shown: N-terminal His6 tag
For B1, the binding result with DCAF15split and with full-length human DCAF15 was “binds” in each case.
